According to patent publication US8728754B1, “Use of proteins isolated from Pseudomonas to control molluscs” (priority 2013, dated 2014):

Tested on: mussels
Assay: Mussel bioassay in scintillation vials
Format: in vivo
Experimental: Mussel bioassays were performed in twenty milliliter scintillation vials. Ten small mussels (approximately 1 cm long) were incubated in the mussel water (10 mL) for 24 hr first, then the mussel water (10 mL) was changed freshly before test cell lysis was added. Cell lysis or proteins (maximal 500 μL) was added into each vial. After 24 hr, the mussel water with cell lysis or proteins was changed with clean mussel water. Then, mussel water was changed every 24 hr with clean mussel water. Dead mussels were taken away every day and mussel mortality was calculated by number of dead mussel divided by the number of total mussels.

B1: dihydrolipoamide dehydrogenase (protein, UniProt P14218 2-478, looked up)
Dihydrolipoyl dehydrogenase: SQKFDVVVIGAGPGGYVAAIRAAQLGLKTACIEKYIGKEGKVALGGTCLNVGCIPSKALLDSSYKYHEAKEAFKVHGIEAKGVTIDVPAMVARKANIVKNLTGGIATLFKANGVTSFEGHGKLLANKQVEVTGLDGKTQVLEAENVIIASGSRPVEIPPAPLSDDIIVDSTGALEFQAVPKKLGVIGAGVIGLELGSVWARLGAEVTVLEALDKFLPAADEQIAKEALKVLTKQGLNIRLGARVTASEVKKKQVTVTFTDANGEQKETFDKLIVAVGRRPVTTDLLAADSGVTLDERGFIYVDDHCKTSVPGVFAIGDVVRGAMLAHKASEEGVMVAERIAGHKAQMNYDLIPSVIYTHPEIAWVGKTEQTLKAEGVEVNVGTFPFAASGRAMAANDTTGLVKVIADAKTDRVLGVHVIGPSAAELVQQGAIGMEFGTSAEDLGMMVFSHPTLSEALHEAALAVNGHAIHIANRKKR
notes: Molluscicidal protein isolated from Pseudomonas CL145A, identified as dihydrolipoamide dehydrogenase
For B1, the “Mussel mortality at 7th day” value (5 ppm, 7th day) was 50% and the “Activity in mussel bioassay of proteins and fractions dosed after gel analysis” value (in vivo) was “active”.
